Measured values: patent US20230265151A1, “GIP/GLP1 CO-AGONIST COMPOUNDS” (priority 2020, published 2023)
Positions count from the first letter of the chain named.

T1: human GIP receptor (human, UniProt P48546 22-466)
T1 sequence (looked up): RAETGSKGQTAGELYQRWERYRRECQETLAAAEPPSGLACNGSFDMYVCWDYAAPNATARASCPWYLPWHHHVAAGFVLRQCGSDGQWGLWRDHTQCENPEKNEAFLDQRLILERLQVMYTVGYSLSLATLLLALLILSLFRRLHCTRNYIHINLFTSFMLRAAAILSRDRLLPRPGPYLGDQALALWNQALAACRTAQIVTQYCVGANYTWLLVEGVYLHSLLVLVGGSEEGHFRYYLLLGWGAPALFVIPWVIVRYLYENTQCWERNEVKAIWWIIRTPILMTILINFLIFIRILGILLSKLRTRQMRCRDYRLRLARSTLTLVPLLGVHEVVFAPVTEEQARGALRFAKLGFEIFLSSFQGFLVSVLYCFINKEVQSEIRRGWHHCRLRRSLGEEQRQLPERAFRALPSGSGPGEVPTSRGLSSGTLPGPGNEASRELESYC

T2: human GIP receptor (human) (UniProt P48546)
T2 sequence (looked up): T1 sequence (looked up)

B1: Example 299 (peptide)
peptide: YXEGTXTSDXSIXLDXKAQXXFIXXLIKGGPSSGAPPPS
modifications: Y-Aib-EGT-αMeF(2F)-TSD-4Pal-SI-αMeL-LD-Orn-K((2-[2-(2-Amino-ethoxy)-ethoxy]-acetyl)2-(γ-Glu)-CO-(CH2)10-CH3)AQ-Aib-Orn-FI-(D-Glu)-αMeY-LIK((2-[2-(2-Amino-ethoxy)-ethoxy]-acetyl)2-(γ-Glu)-CO-(CH2)10-CH3)GGPSSGAPPPS-NH2
B2: Example 322 (peptide)
peptide: B1 peptide with S11X, X21K, K28E
modifications: Y-Aib-EGT-αMeF(2F)-TSD-4Pal-Aib-I-αMeL-LD-Orn-K((2-[2-(2-Amino-ethoxy)-ethoxy]-acetyl)2-(γ-Glu)-CO-(CH2)10-CH3)AQ-Aib-K((2-[2-(2-Amino-ethoxy)-ethoxy]-acetyl)2-(γ-Glu)-CO-(CH2)10-CH3)FI-(D-Glu)-αMeY-LIEGGPSSGAPPPS-NH2
B3: Example 318 (peptide)
peptide: B1 peptide with X10V, S11X, X21K, K28E
modifications: Y-Aib-EGT-αMeF(2F)-TSDV-Aib-I-αMeL-LD-Orn-K((2-[2-(2-Amino-ethoxy)-ethoxy]-acetyl)2-(γ-Glu)-CO-(CH2)12-CO2H)AQ-Aib-K((2-[2-(2-Amino-ethoxy)-ethoxy]-acetyl)2-(γ-Glu)-CO-(CH2)12-CO2H)FI-(D-Glu)-αMeY-LIEGGPSSGAPPPS-NH2
B4: Example 343 (peptide)
peptide: YXEGTXTSDYXIXLDXIAQXEFIKXLIKGGPSSGAPPPS
modifications: Y-Aib-EGT-αMeF(2F)-TSDY-Aib-I-αMeL-LD-Orn-IAQ-Aib-EFIK((2-[2-(2-Amino-ethoxy)-ethoxy]-acetyl)3-(γ-Glu)-CO-(CH2)12-CO2H)-αMeY-LIK((2-[2-(2-Amino-ethoxy)-ethoxy]-acetyl)3-(γ-Glu)-CO-(CH2)12-CO2H)GGPSSGAPPPS-NH2
B5: Example 293 (peptide)
peptide: B1 peptide with X10K, X21E, F22X, K28E
modifications: Y-Aib-EGT-αMeF(2F)-TSDK((2-[2-(2-Amino-ethoxy)-ethoxy]-acetyl)2-(γ-Glu)-CO-(CH2)10-CH3)SI-αMeL-LD-Orn-K((2-[2-(2-Amino-ethoxy)-ethoxy]-acetyl)2-(γ-Glu)-CO-(CH2)10-CH3)AQ-Aib-E-αMeF-I-(D-Glu)-αMeY-LIEGGPSSGAPPPS-NH2
B6: Example 342 (peptide)
peptide: B4 peptide with Y10X
modifications: Y-Aib-EGT-αMeF(2F)-TSD-4Pal-Aib-I-αMeL-LD-Orn-IAQ-Aib-EFIK((2-[2-(2-Amino-ethoxy)-ethoxy]-acetyl)3-(γ-Glu)-CO-(CH2)12-CO2H)-αMeY-LIK((2-[2-(2-Amino-ethoxy)-ethoxy]-acetyl)3-(γ-Glu)-CO-(CH2)12-CO2H)GGPSSGAPPPS-NH2
B7: Example 302 (peptide)
peptide: YXEGTXTSDYXIXLDXKAQXEFIXXLIEGGPSSGAPPPSK
modifications: Y-Aib-EGT-αMeF(2F)-TSDY-Aib-I-αMeL-LD-Orn-K((2-[2-(2-Amino-ethoxy)-ethoxy]-acetyl)2-(γ-Glu)-CO-(CH2)10-CH3)AQ-Aib-EFI-(D-Glu)-αMeY-LIEGGPSSGAPPPSK((2-[2-(2-Amino-ethoxy)-ethoxy]-acetyl)2-(γ-Glu)-CO-(CH2)10-CH3)-NH2
B8: Example 324 (peptide)
peptide: B7 peptide with Y10X
modifications: Y-Aib-EGT-αMeF(2F)-TSD-4Pal-Aib-I-αMeL-LD-Orn-K((2-[2-(2-Amino-ethoxy)-ethoxy]-acetyl)2-(γ-Glu)-CO-(CH2)10-CH3)AQ-Aib-EFI-(D-Glu)-αMeY-LIEGGPSSGAPPPSK((2-[2-(2-Amino-ethoxy)-ethoxy]-acetyl)2-(γ-Glu)-CO-(CH2)10-CH3)-NH2
B9: Example 332 (peptide)
peptide: B1 peptide with K17I, X21K
modifications: Y-Aib-EGT-αMeF(2F)-TSD-hTyr-SI-αMeL-LD-Orn-IAQ-Aib-K((2-[2-(2-Amino-ethoxy)-ethoxy]-acetyl)2-(γ-Glu)-(10-(4-carboxyphenoxy)decanoyl))FI-(D-Glu)-αMeY-LIK((2-[2-(2-Amino-ethoxy)-ethoxy]-acetyl)2-(γ-Glu)-(10-(4-carboxyphenoxy)decanoyl))GGPSSGAPPPS-NH2

Target: human GLP-1 receptor (human, UniProt P43220 24-463)
Assay: cell-based or functional assay

Going from B1 to B2, the “cAMP EC50 (1.0% HSA)” value rises from 2.58 nM to 8.09 nM (3.1-fold).

B3 and B4 are within 1.5-fold of each other in “cAMP EC50 (1.0% HSA)” value: 28.7 nM for the first, 20.2 nM for the second.

B5 and B6 are within 1.5-fold of each other in “cAMP EC50 (1.0% HSA)” value: 10.7 nM for the first, 13.6 nM for the second.

B7 and B8 are within 1.5-fold of each other in “cAMP EC50 (1.0% HSA)” value: 6.55 nM for the first, 4.38 nM for the second.

In the case of B9, the “cAMP EC50 (1.0% HSA)” value is reported as 33.3 nM.

Going from B1 to B2, the “cAMP Emax (1.0% HSA)” value falls from 102% to 94.5%.

First: B4
Second: B5
The “cAMP Emax (1.0% HSA)” value of the first is lower: 98.2% for the first, 99.4% for the second.

B7 and B8 are the same in “cAMP Emax (1.0% HSA)” value: 99.4% for the first, 99.4% for the second.

B9 was tested, and the “cAMP Emax (1.0% HSA)” value was 116%.

Target: human glucagon receptor (human, UniProt P47871 26-477)
Assay: cell-based or functional assay

B1 and B2 cannot be ordered by “cAMP EC50 (1.0% HSA)” value: over 9950 nM for the first, over 9950 nM for the second.

B3 and B4 cannot be ordered by “cAMP EC50 (1.0% HSA)” value: over 9950 nM for the first, over 9950 nM for the second.

B5 and B6 cannot be ordered by “cAMP EC50 (1.0% HSA)” value: over 9950 nM for the first, over 9950 nM for the second.

B7 and B8 cannot be ordered by “cAMP EC50 (1.0% HSA)” value: over 9950 nM for the first, over 9950 nM for the second.

For B9, the “cAMP EC50 (1.0% HSA)” value was over 9950 nM.

Target: T1, human GIP receptor
Assay: cell-based or functional assay

First: B1
Second: B2
The “cAMP EC50 (1.0% HSA)” value of the first is 3-fold lower: 0.204 nM for the first, 0.617 nM for the second.

Compared with B3, B4 is 2.3-fold lower in “cAMP EC50 (1.0% HSA)” value: 5.42 nM for the first, 2.38 nM for the second.

B5 and B6 are within 1.5-fold of each other in “cAMP EC50 (1.0% HSA)” value: 0.987 nM for the first, 1.04 nM for the second.

B7 and B8 are within 1.5-fold of each other in “cAMP EC50 (1.0% HSA)” value: 0.453 nM for the first, 0.321 nM for the second.

In the case of B9, the “cAMP EC50 (1.0% HSA)” value is reported as 4.59 nM.

Compared with B4, B5 is higher in “cAMP Emax (1.0% HSA)” value: 90.2% for the first, 96.6% for the second.

Target: hGLP-1R (Homo sapiens, UniProt P43220)
Assay: cell-based or functional assay

B1 and B2 are within 1.5-fold of each other in cAMP EC50: 0.126 nM for the first, 0.144 nM for the second.

Compared with B3, B5 is 2.1-fold lower in cAMP EC50: 0.219 nM for the first, 0.102 nM for the second.

B7 and B8 are within 1.5-fold of each other in cAMP EC50: 0.0917 nM for the first, 0.0647 nM for the second.

First: B1
Second: B2
The cAMP Emax of the first is higher: 103% for the first, 100% for the second.

Compared with B3, B5 is higher in cAMP Emax: 99.9% for the first, 102% for the second.

Compared with B7, B8 is lower in cAMP Emax: 103% for the first, 97.6% for the second.

Target: human glucagon receptor (human) (UniProt P47871)
Assay: cell-based or functional assay

B1 and B2 cannot be ordered by cAMP EC50: over 9950 nM for the first, over 9950 nM for the second.

B3 and B5 cannot be ordered by cAMP EC50: over 9950 nM for the first, over 9950 nM for the second.

B7 and B8 cannot be ordered by cAMP EC50: over 9950 nM for the first, over 9950 nM for the second.

Target: T2, human GIP receptor (human)
Assay: cell-based or functional assay

B1 and B2 are within 1.5-fold of each other in cAMP EC50: 0.0104 nM for the first, 0.00937 nM for the second.

Going from B3 to B5, the cAMP EC50 falls from 0.0402 nM to 0.00915 nM (4.4-fold).

B7 and B8 are within 1.5-fold of each other in cAMP EC50: 0.00916 nM for the first, 0.00632 nM for the second.

B1 and B2 are the same in cAMP Emax: 101% for the first, 101% for the second.

Going from B3 to B5, the cAMP Emax falls from 106% to 102%.

First: B7
Second: B8
The cAMP Emax of the first is lower: 100% for the first, 101% for the second.
